In experiment [1] the target is T1, Human LRP6-Fc (R&D Systems), recombinant human LRP6 containing the complete extracellular domain (human, UniProt O75581 20-1370).
T1 construct: Bought protein; also called hLRP6; Fc-antigen; not shown: Fc part of the bought fusion protein
T1 sequence: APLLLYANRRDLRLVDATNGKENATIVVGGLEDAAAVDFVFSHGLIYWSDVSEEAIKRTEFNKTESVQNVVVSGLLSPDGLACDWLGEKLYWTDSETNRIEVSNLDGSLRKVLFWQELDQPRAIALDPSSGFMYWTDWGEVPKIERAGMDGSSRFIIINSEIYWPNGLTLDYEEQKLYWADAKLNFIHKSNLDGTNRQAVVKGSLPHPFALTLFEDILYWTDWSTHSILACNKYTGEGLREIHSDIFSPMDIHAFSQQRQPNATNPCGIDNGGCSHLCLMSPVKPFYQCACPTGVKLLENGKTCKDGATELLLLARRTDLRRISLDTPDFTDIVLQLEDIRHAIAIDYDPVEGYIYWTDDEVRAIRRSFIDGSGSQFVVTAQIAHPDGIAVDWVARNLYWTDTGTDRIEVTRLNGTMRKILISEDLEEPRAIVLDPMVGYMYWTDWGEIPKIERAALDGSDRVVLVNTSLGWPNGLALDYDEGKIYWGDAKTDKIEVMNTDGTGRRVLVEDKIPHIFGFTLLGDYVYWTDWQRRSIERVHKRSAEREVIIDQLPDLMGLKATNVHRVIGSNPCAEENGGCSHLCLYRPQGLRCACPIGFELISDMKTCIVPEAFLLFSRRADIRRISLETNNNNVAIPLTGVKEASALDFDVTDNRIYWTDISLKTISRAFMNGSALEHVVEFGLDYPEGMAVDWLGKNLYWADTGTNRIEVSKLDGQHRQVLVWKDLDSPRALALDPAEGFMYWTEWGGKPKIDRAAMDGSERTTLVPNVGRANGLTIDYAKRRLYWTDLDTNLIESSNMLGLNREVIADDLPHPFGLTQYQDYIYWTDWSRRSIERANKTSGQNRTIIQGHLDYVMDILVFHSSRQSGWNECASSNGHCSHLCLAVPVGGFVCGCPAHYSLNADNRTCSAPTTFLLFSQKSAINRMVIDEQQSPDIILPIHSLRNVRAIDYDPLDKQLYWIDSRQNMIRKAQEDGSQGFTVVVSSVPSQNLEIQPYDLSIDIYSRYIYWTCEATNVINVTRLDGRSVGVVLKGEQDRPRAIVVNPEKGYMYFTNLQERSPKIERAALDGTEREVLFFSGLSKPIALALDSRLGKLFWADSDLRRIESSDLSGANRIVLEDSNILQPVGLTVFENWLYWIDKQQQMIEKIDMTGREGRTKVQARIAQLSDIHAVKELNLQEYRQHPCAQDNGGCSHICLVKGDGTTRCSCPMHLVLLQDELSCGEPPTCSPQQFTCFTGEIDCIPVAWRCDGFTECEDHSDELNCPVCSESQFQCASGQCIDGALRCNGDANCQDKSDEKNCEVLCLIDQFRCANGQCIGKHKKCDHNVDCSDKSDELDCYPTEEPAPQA
Kind of experiment: SPR (BIAcore): mAb captured on an anti-mouse chip, Fc-antigen injected from 45 nM in 3-fold dilutions, 1:1 fit [cont., panel R]. As for the experimental part: (§1) Kinetic rate constants (kₐ and kd) were determined using surface plasmon resonance, and affinities (KD) were then calculated from the rate constants (kd/kₐ). Surface plasmon resonance was carried out on a BIAcore system (Biacore International AB, Uppsala, Sweden). Each murine anti-LRP6 mAb sample was diluted 100 fold and captured onto an anti-mouse sensor chip surface. The running buffer contained 10 mM HEPES, 150 mM NaCl, 0.005% Tween-20 and 0.1 mg/ml BSA. Following the capturing step, the Fc-antigen was injected at 45 nM as the highest concentration in a 3-fold dilution series. The association and dissociation phases were monitored for 8 and 60 minutes, respectively. The antigen response data were fit into a 1:1 interaction model.
On the technique in general: SPR reads the build-up and loss of mass on a sensor chip optically.

Experiment [2] addresses T1, Human LRP6-Fc (R&D Systems), …. Kind of experiment: SPR (BIAcore): mAb captured on an anti-mouse chip, Fc-antigen injected from 45 nM in 3-fold dilutions, 1:1 fit. The sheet prints no unit for kd; the unit is from the head of Table 4. [cont., panel R]. How it is done:
as §1

The target is the same in experiment [3]. Kind of experiment: SPR (BIAcore): mAb captured on an anti-mouse chip, Fc-antigen injected from 45 nM in 3-fold dilutions, 1:1 fit. The sheet prints no unit for ka; the unit is from the head of Table 4. [cont., panel R]. How it is done:
as §1

Experiment [4] has the same target. As to the kind of experiment: SPR (BIAcore), mAb captured on anti-mouse chip, Fc-antigen injected, 1:1 model. As for the experimental part:
as §1

Experiment [5] concerns the target T2, LRP6Δ1-2 propeller domain deletion construct (human, UniProt O75581 629-1613).
T2 construct: Deletion construct of human LRP6 expressed in 293 cells
T2 sequence: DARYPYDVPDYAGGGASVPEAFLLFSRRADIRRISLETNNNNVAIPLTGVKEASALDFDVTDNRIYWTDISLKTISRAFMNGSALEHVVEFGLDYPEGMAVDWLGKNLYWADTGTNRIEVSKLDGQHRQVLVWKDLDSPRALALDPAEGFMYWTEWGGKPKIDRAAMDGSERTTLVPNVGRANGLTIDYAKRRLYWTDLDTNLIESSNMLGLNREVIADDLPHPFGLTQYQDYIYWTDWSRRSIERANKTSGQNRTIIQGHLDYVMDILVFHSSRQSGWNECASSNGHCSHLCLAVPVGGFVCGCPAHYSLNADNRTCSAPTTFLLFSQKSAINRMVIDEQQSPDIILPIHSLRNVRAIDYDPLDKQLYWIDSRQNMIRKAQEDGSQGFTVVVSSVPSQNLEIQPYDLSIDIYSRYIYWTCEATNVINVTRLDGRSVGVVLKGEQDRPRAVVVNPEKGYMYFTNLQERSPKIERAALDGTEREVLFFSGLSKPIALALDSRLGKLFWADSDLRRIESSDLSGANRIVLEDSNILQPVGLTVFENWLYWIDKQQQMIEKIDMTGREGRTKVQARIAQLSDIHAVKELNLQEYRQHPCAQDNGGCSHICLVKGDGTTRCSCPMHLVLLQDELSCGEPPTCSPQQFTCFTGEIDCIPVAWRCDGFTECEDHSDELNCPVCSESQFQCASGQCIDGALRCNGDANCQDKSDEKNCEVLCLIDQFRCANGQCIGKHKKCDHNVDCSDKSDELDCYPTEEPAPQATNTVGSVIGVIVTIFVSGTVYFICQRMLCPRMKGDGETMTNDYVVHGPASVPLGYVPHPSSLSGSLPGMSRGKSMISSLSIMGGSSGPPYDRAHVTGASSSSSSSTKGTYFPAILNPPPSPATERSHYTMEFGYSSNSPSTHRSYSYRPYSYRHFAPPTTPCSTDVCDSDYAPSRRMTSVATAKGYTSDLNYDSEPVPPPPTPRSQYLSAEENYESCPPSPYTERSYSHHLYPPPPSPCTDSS
Kind of experiment: flow cytometry on 293 cells expressing the deletion construct. How it is done: (§2) To identify the region of LRP6 that is recognized by LRP6 mAbs, a series of LRP6 propeller domain deletion constructs were made (SEQ ID NO: 6-15) and expressed in 293 cells. Binding of anti-LRP6 mAbs was determined by flow cytometry. […] Amino acid sequence alignments of the heavy and light chain variable domains of the anti-LRP6 mAbs disclosed herein are shown in FIGS. 4 and 5, respectively.

A further experiment concerns the target T3, LRP6Δ1/4.
T3 construct: also called LRP6Del1-4
T3 chain: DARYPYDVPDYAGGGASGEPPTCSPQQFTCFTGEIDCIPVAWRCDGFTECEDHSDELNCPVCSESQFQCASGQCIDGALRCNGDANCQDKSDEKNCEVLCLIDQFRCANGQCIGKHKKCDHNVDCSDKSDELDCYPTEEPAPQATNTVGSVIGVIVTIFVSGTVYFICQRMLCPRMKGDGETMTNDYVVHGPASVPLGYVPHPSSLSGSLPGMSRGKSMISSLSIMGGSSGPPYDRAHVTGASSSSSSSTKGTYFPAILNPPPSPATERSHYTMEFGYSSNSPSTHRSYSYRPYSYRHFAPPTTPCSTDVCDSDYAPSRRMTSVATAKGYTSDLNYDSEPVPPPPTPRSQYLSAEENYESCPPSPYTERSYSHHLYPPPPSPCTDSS
As to the kind of experiment: FACS on 293 cells transfected with LRP6Δ1/4 [cont.]. How it is done: as §2

Changes are numbered by the printed parent chain.

B1: anti-LRP6 monoclonal antibody 1470.2 (antibody, V domains shown)
VH: DVNLVESGGGLVKLGGSLKLSCAASGFTFSSFYMSWVRQTPEKRLDLVAAINTNGGSTYYSDTVKGRFTISRDNAKNTLYLQMSSLKSEDTALFYCARQPYYGGPMDFWGQGTSVTVSS
VL: DIVLTQSPATLSVTPGDSVSLSCRASQSINNNLHWYQQKSHESPRLLIKYASQSISGIPSRFSGSGSGTDFTLSINSVETEDFGMYFCQQSNNWPLTFGAGTKLEL
notes: Murine hybridoma mAb, protein G purified; also called VH22/VL22
A word on the Kd: it is the equilibrium constant for the complex coming apart. By koff is commonly meant a measure of how fast the partners let go of each other. By kon is commonly meant a measure of how fast the partners come together. For B1, in experiment [1], the dissociation constant Kd is 3.51 nM. The koff in experiment [2] stood at 7.3e-05 s⁻¹. In experiment [3], the kon came out at 20800 M⁻¹ s⁻¹.

B2: anti-LRP6 monoclonal antibody 1903.1 (antibody, V domains shown)
VH: B1 VH with S31R, D107E
VL: DIVMTQSQKFMSTSVGDRVSVTCKASQNVGTNVAWYQQKPGQSPKALIYSASYRYSGVPDRFTGSGSGSDFTLTISNVQSEDLAEYFCQQYNSYPLTFGAGTKLEL
notes: Murine hybridoma mAb, protein G purified; also called VH23/VL23
Take B2: in experiment [4], the Kd is 2.79 nM, the off-rate (koff) was determined as 9.4e-05 s⁻¹ and the kon came out at 33700 M⁻¹ s⁻¹.

B3: anti-LRP6 monoclonal antibody 1433.8 (antibody, V domains shown)
VH: QVQLQQSGAELAKPGASVKMSCKASGYTFTSYWMHWVKQRPGQGLEWIGYINPSTGYTEYNQKFRDKATLTADKSSSTANMQLSSLTSEDSAVYYCTRTAQYYGSPRGYYAMDSWGQGTSVTVSS
VL: MTQAAFSNPVTLGTSASISCRSSKSLLHSNGITYLCWFLQKPGQSPQLLIYLMSNLASGVPDRFSSSGSGTDFTLRISRVEAEDVGVYFCAQNLDLPWTFGGGTKLEI
notes: Murine hybridoma mAb, protein G purified; also called VH21/VL21
As for B3, in experiment [4], the Kd amounted to 1.68 nM, the off-rate (koff) amounted to 7.7e-05 s⁻¹ and the association rate constant (kon) was determined as 45600 M⁻¹ s⁻¹.

B4: anti-LRP6 monoclonal antibody 135.16 (antibody, V domains shown)
VH: QVQLQQSGAELVKPGASVKMSCKAFGYTFTSYPIEWMKQNHGKSLEWIGNFHPYNDNTKYNEKFKGKAKLTVEKSSSTVYLELSRSTSDDSAVYYCARGYSGNYFSAMDYWGQGTSVTVSS
VL: DIVMTQSQKFMSTSVGDRVSITCKASQNVRNDVAWYQQKPGQSPKSLIYLASNRHTGVPDRFTGSGSGTDFTLTISNVQSEDLADYFCLQHWNYPYTFGGGTKLEIKR
notes: Murine hybridoma mAb, protein G purified; also called mAb135.16
B4: in experiment [5], the binding result is “no binding”. For the same molecule, the binding result with LRP6Δ1/4 is listed as “no binding (tested: not stated)”. For the same molecule, in experiment [4], the Kd came out at 0.73 nM, the koff was 1.9e-05 s⁻¹ and the kon came to 26300 M⁻¹ s⁻¹.
